Source: the RNAGym collection of RNA variant scans (doi:10.1093/nar/gkz1192)

B1: CPEB3 Ribozyme (parent)
chain: UAACAGGGGGCCACAGCAGAAGCGUUCACGUCGCAGCCCCUGUCAGAUUCUGGUGAAUCUGCGAAUUCUGCUGUAUAUCUC

Variants of: B1
Assay: self-cleavage, relative activity (ratio to wild type); higher = more cleavage; in vitro, sequencing
Summary of the method: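 For each CPEB3 ribozyme variant, relative activity is its cleaved/total read fraction divided by the unmutated ribozyme's. Barcoded error-prone PCR libraries were transcribed by T7 RNA polymerase (5 hours, 37°C) and held in DNase I for 15 min before an EDTA stop, with cleavage occurring throughout. Template-switching reverse transcription and Illumina sequencing were used to read the RNAs. A 5-read minimum applied, and results are the mean of three batches.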

Variant | self-cleavage
UAACAGGGGGCCACAGCAGAAGCGUUCACGUCGCAGCCCCUGUCAGGUUCUGGUGAAUCUGCGAAUUCAGCUGUAUAUCUC [A47G U69A] | 0.6
UAACAGGGGGCCACAGCAGAAGCGUUCACGUCGCAGCCCCUGUCAGUUUCUGGUGAAUCUGCGAAUUCUGCUGUAUAUCUC [A47U] | 0.62
UAACAGGGGGCCACAGCAGAAGCGUUCACGUCGCAGCCCCUGUCAGUUUCUGGUGAAUCUGCGAAUUCUGCUGUGUAUCUC [A47U A75G] | 0.38
UAACAGGGGGCCACAGCAGAAGCGUUCACGUCGCAGCCCCUGUCAGUUUCUGGUGAAUCUGCGAAUUCUGCUGUUUAUCUC [A47U A75U] | 1
UAACAGGGGGCCACAGCAGAAGCGUUCACGUCGCAGCCCCUGUCAGUUUCUGGUUAAUCUGCGAAUUCUGCUGUAUAUCUC [A47U G55U] | 0.26
UAACAGGGGGCCACAGCAGAAGCGUUCACGUCGCAGCCCCUGUCAGGUGCUGGUGAAUCUGCGAAUUCUGCUGUAUAUCUC [A47G U49G] | 0.47
UAACAGGGGGCCACAGCAGAAGCGUUCACGUCGCAGCCCCUGUCAGGUACUGGUGAAUCUGCGAAUUCUGCUGUAUAUCUC [A47G U49A] | 0.34
UAACAGGGGGCCACAGCAGAAGCGUUCACGUCGCAGCCCCUGUCAGGUCCUGGUGAAUCUGCGAAUUCUGCUGUAUAUCUC [A47G U49C] | 0.33
UAACAGGGGGCCACAGCAGAAGCGUUCACGUCGCAGCCCCUGUCAGGUUCUGGCGAAUCUGCGAAUUCUGCUGUAUAUCUC [A47G U54C] | 1.01
UAACAGGGGGCCACAGCAGAAGCGUUCACGUCGCAGCCCCUGUCAGGUUCUGGAGAAUCUGCGAAUUCUGCUGUAUAUCUC [A47G U54A] | 1.08
UAACAGGGGGCCACAGCAGAAGCGUUCACGUCGCAGCCCCUGUCAGGUUCUGGUGAAUCUGCGAAUUCUGCUGUAUAUCCC [A47G U80C] | 1.08
UAACAGGGGGCCACAGCAGAAGCGUUCACGUCGCAGCCCCUGUCAGGUUCUGGUGAAUCUGCGAAUUCUGCUGUAUAUCAC [A47G U80A] | 1.13
UAACAGGGGGCCACAGCAGAAGCGUUCACGUCGCAGCCCCUGUCAGUUUCUGGUGAAUCUGCGAAUUAUGCUGUAUAUCUC [A47U C68A] | 0.25
UAACAGGGGGCCACAGCAGAAGCGUUCACGUCGCAGCCCCUGUCAGUCUCUGGUGAAUCUGCGAAUUCUGCUGUAUAUCUC [A47U U48C] | 0.26
UAACAGGGGGCCACAGCAGAAGCGUUCACGUCGCAGCCCCUGUCAGUUUCUGGUGAAUCUGUGAAUUCUGCUGUAUAUCUC [A47U C62U] | 0.33
UAACAGGGGGCCACAGCAGAAGCGUUCACGUCGCAGCCCCUGUCAGUUUCUGGUGAAUCUGCGAAUUCUGCUGUAUAUCUA [A47U C81A] | 1.13
UAACAGGGGGCCACAGCAGAAGCGUUCACGUCGCAGCCCCUGUCAGUUUCUGGUGAAUUUGCGAAUUCUGCUGUAUAUCUC [A47U C59U] | 0.2

Variant | self-cleavage
UAACAGGGGGCCACAGCAGAAGCGUUCACGUCGCAGCCCCUGUCAGUUUCUGGUGAAUAUGCGAAUUCUGCUGUAUAUCUC [A47U C59A] | 0.17
UAACAGGGGGCCACAGCAGAAGCGUUCACGUCGCAGCCCCUGUCAGGUUCUGGUGAAUCUGCGAAUACUGCUGUAUAUCUC [A47G U67A] | 0.49
UAACAGGGGGCCACAGCAGAAGCGUUCACGUCGCAGCCCCUGUCAGGUUCUGGUGAAUCUGCGAAUCCUGCUGUAUAUCUC [A47G U67C] | 0.35
UAACAGGGGGCCACAGCAGAAGCGUUCACGUCGCAGCCCCUGUCAGGUUCUGGUGAAUCUGCGAAUGCUGCUGUAUAUCUC [A47G U67G] | 0.34
UAACAGGGGGCCACAGCAGAAGCGUUCACGUCGCAGCCCCUGUCAGGUUCUGGUGAAUCUGCGAAGUCUGCUGUAUAUCUC [A47G U66G] | 0.27
UAACAGGGGGCCACAGCAGAAGCGUUCACGUCGCAGCCCCUGUCAGGUUCUGGUGAAUCUGCGAACUCUGCUGUAUAUCUC [A47G U66C] | 0.35
UAACAGGGGGCCACAGCAGAAGCGUUCACGUCGCAGCCCCUGUCAGGUUCUGGUGAAUCUGCGAAAUCUGCUGUAUAUCUC [A47G U66A] | 0.45
UAACAGGGGGCCACAGCAGAAGCGUUCACGUCGCAGCCCCUGUCAGUUUCUAGUGAAUCUGCGAAUUCUGCUGUAUAUCUC [A47U G52A] | 0.86
UAACAGGGGGCCACAGCAGAAGCGUUCACGUCGCAGCCCCUGUCAGUUUCUGGUGUAUCUGCGAAUUCUGCUGUAUAUCUC [A47U A56U] | 0.33
UAACAGGGGGCCACAGCAGAAGCGUUCACGUCGCAGCCCCUGUCAGUUUCUGGUGGAUCUGCGAAUUCUGCUGUAUAUCUC [A47U A56G] | 0.35
UAACAGGGGGCCACAGCAGAAGCGUUCACGUCGCAGCCCCUGUCAGUUUCUGGUGAAUCUGCAAAUUCUGCUGUAUAUCUC [A47U G63A] | 0.29
UAACAGGGGGCCACAGCAGAAGCGUUCACGUCGCAGCCCCUGUCAGGUUCUGGUGAAUCUGCGAAUUCUGCUGUAUAACUC [A47G U78A] | 1.07
UAACAGGGGGCCACAGCAGAAGCGUUCACGUCGCAGCCCCUGUCAGGUUCUGGUGAAUCUGCGAAUUCUGCUGUAUACCUC [A47G U78C] | 0.93
UAACAGGGGGCCACAGCAGAAGCGUUCACGUCGCAGCCCCUGUCAGGUUCUGGUGAAUCUGCGAAUUCUGCUGUAUAGCUC [A47G U78G] | 0.79
UAACAGGGGGCCACAGCAGAAGCGUUCACGUCGCAGCCCCUGUCAGUUUCUGGUGAGUCUGCGAAUUCUGCUGUAUAUCUC [A47U A57G] | 0.32
UAACAGGGGGCCACAGCAGAAGCGUUCACGUCGCAGCCCCUGUCAGUUUCUGGUGAUUCUGCGAAUUCUGCUGUAUAUCUC [A47U A57U] | 0.64
UAACAGGGGGCCACAGCAGAAGCGUUCACGUCGCAGCCCCUGUCAGUUUCUGUUGAAUCUGCGAAUUCUGCUGUAUAUCUC [A47U G53U] | 1.03
